Patent US10253089B2, “Matrix metalloproteinase cleavable protein polymers for cancer gene therapy” (The University of Utah Research Foundation, priority 2012, dated 2019)

What was measured:
[1] = Dynamic mechanical analysis (DMA) of SELP hydrogels; assay type: physicochemical; conditions: 12 wt % hydrogels
From the text: It was predicted that polymer structure would also play a large role in the mechanical properties of the hydrogels. Dynamic mechanical analysis (DMA) was used to examine hydrogels made from each of the SELP analogues, and as predicted, there was a strong dependence of the results on the silk and elastin content of the polymers, and the arrangement of the silk and elastin blocks. […] This is opposite the order observed in the swelling studies, which is to be expected assuming the crosslinking density decreases with increasing swelling and decreasing mechanical properties for analogous materials. The legend for the graph shown in FIG. 8 is as follows: triangles: SELP-47K, squares: SELP-815K, diamonds: SELP-415K. Highly controlled structure in SELPs allows fine-tuning of mechanical properties.
To gain further insight into the hydrogel pore structure, network properties were examined as a function of polymer sequence by small angle neutron scattering (SANS) techniques (FIG. 9). SANS allows the examination of microstructures in the range 1-100 nm through the analysis of elastic neutron scattering. […] The calculated correlation length (Table 3) depicts a trend in the observation that are in the order SELP-415K>SELP-815K>SELP-47K. […]

MMP-2 [2] = target: T1, MMP-2 (Homo sapiens, UniProt P08253); experiment: Enzymatic digest of polymer by MMP-2, SDS-PAGE; assay type: biochemical; conditions: 1 mg/ml polymer, 10 nM and 40 nM MMP-2, 2-48 hours, room temperature
T1 sequence (P08253 110-660): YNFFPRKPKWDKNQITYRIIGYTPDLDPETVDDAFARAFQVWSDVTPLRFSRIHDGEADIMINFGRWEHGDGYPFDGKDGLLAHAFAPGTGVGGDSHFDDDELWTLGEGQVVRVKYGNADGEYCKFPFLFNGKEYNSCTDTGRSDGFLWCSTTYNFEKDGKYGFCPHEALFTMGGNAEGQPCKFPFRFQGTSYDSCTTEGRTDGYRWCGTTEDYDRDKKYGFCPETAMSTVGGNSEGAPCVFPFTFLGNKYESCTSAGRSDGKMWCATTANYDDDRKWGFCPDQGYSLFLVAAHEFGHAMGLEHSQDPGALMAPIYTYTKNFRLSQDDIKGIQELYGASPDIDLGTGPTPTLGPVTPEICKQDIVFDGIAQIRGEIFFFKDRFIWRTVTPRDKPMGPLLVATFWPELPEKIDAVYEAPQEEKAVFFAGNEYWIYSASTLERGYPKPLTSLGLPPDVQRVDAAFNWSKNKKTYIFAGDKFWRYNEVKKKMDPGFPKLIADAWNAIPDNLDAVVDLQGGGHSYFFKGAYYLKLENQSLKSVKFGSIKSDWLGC
Procedure: This buffer recipe is sourced from the Molecular Probes EnzChek Gelatinase/Collagenase Assay Kit (Invitrogen, Carlsbad, Calif.), which was used to confirm the activity of MMP-2 and MMP-9 prior to use. 2× Laemmli Buffer was supplemented with 5% β-mercaptoethanol and added 1:1 by volume to the polymer solutions, which were then placed in a PCR thermal cycler and heated to 95° C. for five minutes to denature the protein. 25 μl of each sample was added to 4-15% Bis-Tris precast PAGE gel and electrophoresis was performed at 200V until the dye front reached the bottom of the gel, approximately 30 minutes. Kaleidoscope protein standard was used as a molecular weight marker. Following electrophoresis, gels were stained with GelCode Blue (colloidal Coomassie formulation) following manufacturer's instructions for staining and destaining.
100 μl samples of each polymer were digested with a final concentration of 10 nM and 40 nM MMP-2 or MMP-9. MMP samples were incubated at room temperature for 2, 4, 12, 24, 36, and 48 hours and samples were run on PAGE gels and stained with GelCode Blue to visualize band patterns corresponding to protein degradation.
Additionally, this digestion is dependent on both time of exposure and concentration of MMP.

MMP-2 [3] = target: T1, MMP-2; experiment: Hydrogel protein loss in the presence of MMP-2; assay type: biochemical; conditions: 10 wt % hydrogel, MMP-2 10 nM, two weeks
Procedure: The properties of hydrogels formed from SELPs are strongly dependent on the shear applied to liquid solutions of polymer prior to gelation. SELPs solubilized in phosphate buffered saline were loaded into a 1 ml luer-lock syringe connected at the hub to another 1 ml luer-lock syringe via two 27G needles, joined by a section of 0.0155″ HPLC tubing. The SELP solution was passed through this device at maximum hand pressure for five full bidirectional cycles, at which point it was used for studies.
Hydrogels were characterized for their sensitivity to MMP degradation in the context of protein loss from the gel, changes in mechanical properties, and release of model 100 nm fluorescent nanoparticles. […] Syringes were sealed with Parafilm and allowed to gel upright overnight at 37° C. […]
Protein loss was quantified using a Modified Lowry Assay Kit, and using known SELP solutions for the standard curve instead of the supplied bovine serum albumin, as SELP contains few Lowry-reactive amino acids. The mechanical properties of SELPs were evaluated in cyclic compression at 1 Hz and 1% strain, with ˜10 grams of preloading applied for 10 minutes to eliminate stress relaxation. Stress was measured using a 2 lb load cell. Release was quantified by measuring the fluorescence of release samples with an excitation/emission of 260/515. […]

B1: SELP815K: silk-elastin-like protein polymer, longer silk units, fifteen elastin units, lysine elastin unit; monomer repeated 6 times (SEQ ID NO. 21) (protein)
chain: MDPVVLQRRDWENPGVTQLNRLAAHPPFASDPMGAGSGAGAGSGAGAGSGVGVPGVGVPGVGVPGVGVPGKGVPGVGVPGVGVPGVGVPGVGVPGVGVPGVGVPGVGVPGVGVPGVGVPGVGVPGVGVPGAGAGSGAGAGSGAGAGSGAGAGSGAGAGSGAGAGAGSGAGAGSGAGAGSGVGVPGVGVPGVGVPGVGVPGKGVPGVGVPGVGVPGVGVPGVGVPGVGVPGVGVPGVGVPGVGVPGVGVPGVGVPGVGVPGAGAGSGAGAGSGAGAGSGAGAGSGAGAGSGAGAGAGSGAGAGSGAGAGSGVGVPGVGVPGVGVPGVGVPGKGVPGVGVPGVGVPGVGVPGVGVPGVGVPGVGVPGVGVPGVGVPGVGVPGVGVPGVGVPGAGAGSGAGAGSGAGAGSGAGAGSGAGAGSGAGAGAGSGAGAGSGAGAGSGVGVPGVGVPGVGVPGVGVPGKGVPGVGVPGVGVPGVGVPGVGVPGVGVPGVGVPGVGVPGVGVPGVGVPGVGVPGVGVPGAGAGSGAGAGSGAGAGSGAGAGSGAGAGSGAGAGAGSGAGAGSGAGAGSGVGVPGVGVPGVGVPGVGVPGKGVPGVGVPGVGVPGVGVPGVGVPGVGVPGVGVPGVGVPGVGVPGVGVPGVGVPGVGVPGAGAGSGAGAGSGAGAGSGAGAGSGAGAGSGAGAGAGSGAGAGSGAGAGSGVGVPGVGVPGVGVPGVGVPGKGVPGVGVPGVGVPGVGVPGVGVPGVGVPGVGVPGVGVPGVGVPGVGVPGVGVPGVGVPGAGAGSGAGAGSGAGAGSGAGAGSGAGAGSGAGAMDPGRYQDLRSHHHHHH
modifications: monomer repeated 6 times; Hybrid of Homo sapein and Bombyx mori
storage modulus [1]: falls between those of SELP47K and 415K | digestion by MMP-2 (MMP-2 [2]): is not | higher protein loss compared to control (MMP-2 [3]): statistically insignificant
